Laboratory results: patent US20140087995A1 (published 2014)
Numbered stars: 1 amine (or outer) side, 2 acyl side, 3 side chain; on linkers, the order of the positions; unused ones are H or OH. Bridge positions count the residues as written; N and C are the ends. Side chains are listed from the residue outwards. Ends that are not written are not given here. * marks the point of attachment. C20 diacid = O=C(O)CCCCCCCCCCCCCCCCCCC(=O)*; γGlu = O=C(O)[C@H](CCC(=O)[*:2])N[*:1]; AEEA = NCCOCCOCC(=O)O

T1: human amylin 3(a) receptor (human calcitonin receptor co-expressed with RAMP-3) (human, UniProt P30988 25-474; O60896 24-148, limits assumed)
T1 sequence (looked up) 1: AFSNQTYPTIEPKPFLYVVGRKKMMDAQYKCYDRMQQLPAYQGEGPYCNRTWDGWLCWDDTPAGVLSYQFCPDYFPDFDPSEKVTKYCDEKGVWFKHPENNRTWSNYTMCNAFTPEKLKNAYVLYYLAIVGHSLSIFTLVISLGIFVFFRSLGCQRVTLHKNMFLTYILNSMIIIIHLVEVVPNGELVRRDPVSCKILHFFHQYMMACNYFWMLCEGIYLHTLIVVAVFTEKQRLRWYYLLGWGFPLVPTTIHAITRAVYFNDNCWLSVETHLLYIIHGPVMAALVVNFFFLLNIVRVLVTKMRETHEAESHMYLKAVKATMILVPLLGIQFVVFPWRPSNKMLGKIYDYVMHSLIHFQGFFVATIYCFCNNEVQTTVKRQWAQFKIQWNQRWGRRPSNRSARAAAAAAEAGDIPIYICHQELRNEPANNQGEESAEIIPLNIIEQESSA
T1 sequence (looked up) 2: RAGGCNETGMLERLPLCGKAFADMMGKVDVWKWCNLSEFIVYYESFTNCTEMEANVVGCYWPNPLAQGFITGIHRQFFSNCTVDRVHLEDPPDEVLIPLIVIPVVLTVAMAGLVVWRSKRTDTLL

T2: human calcitonin receptor (human, UniProt P30988 25-474)
T2 sequence (looked up): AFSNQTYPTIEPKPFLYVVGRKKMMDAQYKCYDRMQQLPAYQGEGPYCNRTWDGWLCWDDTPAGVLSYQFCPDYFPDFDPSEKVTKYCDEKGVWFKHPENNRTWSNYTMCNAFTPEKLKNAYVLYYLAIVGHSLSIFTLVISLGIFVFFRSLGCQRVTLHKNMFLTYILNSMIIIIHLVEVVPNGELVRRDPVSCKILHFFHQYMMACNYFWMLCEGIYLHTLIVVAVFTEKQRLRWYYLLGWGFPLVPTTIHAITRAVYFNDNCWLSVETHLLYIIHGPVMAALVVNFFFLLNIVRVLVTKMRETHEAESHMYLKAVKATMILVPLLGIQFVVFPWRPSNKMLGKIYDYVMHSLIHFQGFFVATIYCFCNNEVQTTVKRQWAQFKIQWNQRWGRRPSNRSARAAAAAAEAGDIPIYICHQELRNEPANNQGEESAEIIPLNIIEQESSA


What was measured:
[1] = target: T1, human amylin 3(a) receptor (human …); assay: cell-based or functional assay
[2] = target: T2, human calcitonin receptor; assay: cell-based or functional assay

Binder	hAmylin-R funct. EC50 [1] [nM]	Ratio hCT/hAmylin funct. [2]	hCTR funct. EC50 [2] [nM]
K([AEEA-C20 diacid])CNTATCATQRLAHFLRHSSPNFGAIPSSTNVGSNTY-NH2 (disulfide 2-7; N-terminus assumed; SMILES CC[C@H](C)[C@H](NC(=O)[C@H](C)NC(=O)CNC(=O)[C@H](Cc1ccccc1)NC(=O)[C@H](CC(N)=O)NC(=O)[C@@H]1CCCN1C(=O)[C@H](CO)NC(=O)[C@H](CO)NC(=O)[C@H](Cc1c[nH]cn1)NC(=O)[C@H](CCCNC(=N)N)NC(=O)[C@H](CC(C)C)NC(=O)[C@H](Cc1ccccc1)NC(=O)[C@H](Cc1c[nH]cn1)NC(=O)[C@H](C)NC(=O)[C@H](CC(C)C)NC(=O)[C@H](CCCNC(=N)N)NC(=O)[C@H](CCC(N)=O)NC(=O)[C@@H](NC(=O)[C@H](C)NC(=O)[C@@H]1CSSC[C@H](NC(=O)[C@@H](N)CCCCNC(=O)COCCOCCNC(=O)CCCCCCCCCCCCCCCCCCC(=O)O)C(=O)N[C@@H](CC(N)=O)C(=O)N[C@@H]([C@@H](C)O)C(=O)N[C@@H](C)C(=O)N[C@@H]([C@@H](C)O)C(=O)N1)[C@@H](C)O)C(=O)N1CCC[C@H]1C(=O)N[C@@H](CO)C(=O)N[C@@H](CO)C(=O)N[C@H](C(=O)N[C@@H](CC(N)=O)C(=O)N[C@H](C(=O)NCC(=O)N[C@@H](CO)C(=O)N[C@@H](CC(N)=O)C(=O)N[C@H](C(=O)N[C@@H](Cc1ccc(O)cc1)C(N)=O)[C@@H](C)O)C(C)C)[C@@H](C)O, also called compound 90) [N^ε1-[2-[2-[2-(19-carboxynonadecanoylamino)ethoxy]ethoxy]acetyl]-[His14,Arg17,Pro21,Pro27]-h-amylin]	0.033	7.2	0.236
K([AEEA-AEEA-γGlu-C20 diacid])CNTATCATQRLANFLRHSSPNFGAIPSSTPVGSNTY-NH2 (disulfide 2-7; N-terminus assumed; SMILES CC[C@H](C)[C@H](NC(=O)[C@H](C)NC(=O)CNC(=O)[C@H](Cc1ccccc1)NC(=O)[C@H](CC(N)=O)NC(=O)[C@@H]1CCCN1C(=O)[C@H](CO)NC(=O)[C@H](CO)NC(=O)[C@H](Cc1c[nH]cn1)NC(=O)[C@H](CCCNC(=N)N)NC(=O)[C@H](CC(C)C)NC(=O)[C@H](Cc1ccccc1)NC(=O)[C@H](CC(N)=O)NC(=O)[C@H](C)NC(=O)[C@H](CC(C)C)NC(=O)[C@H](CCCNC(=N)N)NC(=O)[C@H](CCC(N)=O)NC(=O)[C@@H](NC(=O)[C@H](C)NC(=O)[C@@H]1CSSC[C@H](NC(=O)[C@@H](N)CCCCNC(=O)COCCOCCNC(=O)COCCOCCNC(=O)CC[C@H](NC(=O)CCCCCCCCCCCCCCCCCCC(=O)O)C(=O)O)C(=O)N[C@@H](CC(N)=O)C(=O)N[C@@H]([C@@H](C)O)C(=O)N[C@@H](C)C(=O)N[C@@H]([C@@H](C)O)C(=O)N1)[C@@H](C)O)C(=O)N1CCC[C@H]1C(=O)N[C@@H](CO)C(=O)N[C@@H](CO)C(=O)N[C@H](C(=O)N1CCC[C@H]1C(=O)N[C@H](C(=O)NCC(=O)N[C@@H](CO)C(=O)N[C@@H](CC(N)=O)C(=O)N[C@H](C(=O)N[C@@H](Cc1ccc(O)cc1)C(N)=O)[C@@H](C)O)C(C)C)[C@@H](C)O, also called compound 96)	0.181	21	3.8
K([AEEA-AEEA-γGlu-C20 diacid])CNTATCATQRLANFLRHSSPNFGAIPSSTNVGRNTY-NH2 (disulfide 2-7; N-terminus assumed; SMILES CC[C@H](C)[C@H](NC(=O)[C@H](C)NC(=O)CNC(=O)[C@H](Cc1ccccc1)NC(=O)[C@H](CC(N)=O)NC(=O)[C@@H]1CCCN1C(=O)[C@H](CO)NC(=O)[C@H](CO)NC(=O)[C@H](Cc1c[nH]cn1)NC(=O)[C@H](CCCNC(=N)N)NC(=O)[C@H](CC(C)C)NC(=O)[C@H](Cc1ccccc1)NC(=O)[C@H](CC(N)=O)NC(=O)[C@H](C)NC(=O)[C@H](CC(C)C)NC(=O)[C@H](CCCNC(=N)N)NC(=O)[C@H](CCC(N)=O)NC(=O)[C@@H](NC(=O)[C@H](C)NC(=O)[C@@H]1CSSC[C@H](NC(=O)[C@@H](N)CCCCNC(=O)COCCOCCNC(=O)COCCOCCNC(=O)CC[C@H](NC(=O)CCCCCCCCCCCCCCCCCCC(=O)O)C(=O)O)C(=O)N[C@@H](CC(N)=O)C(=O)N[C@@H]([C@@H](C)O)C(=O)N[C@@H](C)C(=O)N[C@@H]([C@@H](C)O)C(=O)N1)[C@@H](C)O)C(=O)N1CCC[C@H]1C(=O)N[C@@H](CO)C(=O)N[C@@H](CO)C(=O)N[C@H](C(=O)N[C@@H](CC(N)=O)C(=O)N[C@H](C(=O)NCC(=O)N[C@@H](CCCNC(=N)N)C(=O)N[C@@H](CC(N)=O)C(=O)N[C@H](C(=O)N[C@@H](Cc1ccc(O)cc1)C(N)=O)[C@@H](C)O)C(C)C)[C@@H](C)O, also called compound 95)	0.651	33	21.5
K([AEEA-AEEA-γGlu-C20 diacid])CNTATCATQRLANFLRHSSPNFGAIPSSTNVGHNTY-NH2 (disulfide 2-7; N-terminus assumed; SMILES CC[C@H](C)[C@H](NC(=O)[C@H](C)NC(=O)CNC(=O)[C@H](Cc1ccccc1)NC(=O)[C@H](CC(N)=O)NC(=O)[C@@H]1CCCN1C(=O)[C@H](CO)NC(=O)[C@H](CO)NC(=O)[C@H](Cc1c[nH]cn1)NC(=O)[C@H](CCCNC(=N)N)NC(=O)[C@H](CC(C)C)NC(=O)[C@H](Cc1ccccc1)NC(=O)[C@H](CC(N)=O)NC(=O)[C@H](C)NC(=O)[C@H](CC(C)C)NC(=O)[C@H](CCCNC(=N)N)NC(=O)[C@H](CCC(N)=O)NC(=O)[C@@H](NC(=O)[C@H](C)NC(=O)[C@@H]1CSSC[C@H](NC(=O)[C@@H](N)CCCCNC(=O)COCCOCCNC(=O)COCCOCCNC(=O)CC[C@H](NC(=O)CCCCCCCCCCCCCCCCCCC(=O)O)C(=O)O)C(=O)N[C@@H](CC(N)=O)C(=O)N[C@@H]([C@@H](C)O)C(=O)N[C@@H](C)C(=O)N[C@@H]([C@@H](C)O)C(=O)N1)[C@@H](C)O)C(=O)N1CCC[C@H]1C(=O)N[C@@H](CO)C(=O)N[C@@H](CO)C(=O)N[C@H](C(=O)N[C@@H](CC(N)=O)C(=O)N[C@H](C(=O)NCC(=O)N[C@@H](Cc1c[nH]cn1)C(=O)N[C@@H](CC(N)=O)C(=O)N[C@H](C(=O)N[C@@H](Cc1ccc(O)cc1)C(N)=O)[C@@H](C)O)C(C)C)[C@@H](C)O, also called compound 97)	0.356	33	11.8
